± gives the standard deviation of the averaged measurements.
B1: library; a variant is named by its letters at N, in order (parent)
chain: GCUGUCACCGGUGCUUGGUACGUUAUAUUCAGCCGGUCUGAUGAGUCUNNNNNNAGACGAAACAGC

Columns and labels:
(6R,S)-folinic acid [1] = variants of: B1; test: normalized RNA/DNA level without ligand (relative to sTRSVctl = 100) (log10 (% of sTRSVctl)); HEK293T overexpressing SLC46A1; higher = less ribozyme self-cleavage, higher mRNA level; settings: without (6R,S)-folinic acid; ligand present: no
Outline: (§1)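 Ribozyme switch library plasmids linked to reporters were introduced into HEK293T cells at 4 µg per 6-well well, with ligand, if any, added 1 h before. Total RNA was extracted with EDTA 72 h later, reverse-transcribed, amplified, barcoded and sequenced. RNA level was computed from RNA over DNA reads relative to a spiked-in non-cleaving sequence or the top sequences, then scaled and log-transformed. The top set was 25 sequences, values were ×100 and log10, and the cutoff was ≥100 DNA reads.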

(6R,S)-folinic acid [2] = variants of: B1; test: normalized RNA/DNA level with ligand (relative to sTRSVctl = 100) (log10 (% of sTRSVctl)); HEK293T overexpressing SLC46A1; ligand concentration (+) RNA-Seq: 6 mM; higher = less ribozyme self-cleavage, higher mRNA level; settings: with (6R,S)-folinic acid; ligand present: yes
Outline: as §1

Variant	normalized RNA/DNA level without ligand (log10) ((6R,S)-folinic acid [1])	normalized RNA/DNA level with ligand (log10) ((6R,S)-folinic acid [2])
GGGUCA	2.078 ± 0.0065	2.09 ± 0.053
GGGUCU	2.064 ± 0.0032	2.06 ± 0.018
GGGUCC	2.05 ± 0.022	2.06 ± 0.04
UGGCUU	2.021 ± 0.00062	2.043 ± 0.0081
UGGCUG	2.066 ± 0.0012	2.09 ± 0.023
UGGCUC	2.07 ± 0.024	2.04 ± 0.023
UGGCUA	2.03 ± 0.013	2.05 ± 0.028
GGUAAC	1.99 ± 0.041	2.005 ± 0.012
GGGCUC	2.1006 ± 0.0021	2.1 ± 0.021
GGGCUA	2.048 ± 0.0023	2.05 ± 0.033
GGGCUU	2.143 ± 0.0064	2.1 ± 0.027
GGGCUG	2.044 ± 0.0043	2.03 ± 0.046
UGUCUU	1.978 ± 0.016	2.03 ± 0.022
UGUCUC	2.06 ± 0.022	2.052 ± 0.02
UGUCUA	1.991 ± 0.0035	2.02 ± 0.043
UGGGUU	1.9881 ± 0.0019	2.018 ± 0.016
UGGGUC	2.11 ± 0.022	2.06 ± 0.034
UGGGUA	1.892 ± 0.0053	1.98 ± 0.053
UGGGCA	1.962 ± 0.0051	2.01 ± 0.032
UGGGCU	2.06 ± 0.024	2.04 ± 0.025

Variant	normalized RNA/DNA level without ligand (log10) ((6R,S)-folinic acid [1])	normalized RNA/DNA level with ligand (log10) ((6R,S)-folinic acid [2])
CGUGGU	1.998 ± 0.0064	1.99 ± 0.029
CGUGGC	2.02 ± 0.027	2 ± 0.073
CGUGGG	1.8506 ± 0.0006	1.98 ± 0.036
AGUGCC	2.072 ± 0.014	2.07 ± 0.035
AGUGCA	1.97 ± 0.025	1.996 ± 0.016
AGUGCG	1.849 ± 0.017	2.01 ± 0.062
AGUGCU	2.01 ± 0.0069	2.03 ± 0.027
CGUCGU	2.04 ± 0.032	2 ± 0.03
CGUCGA	2.012 ± 0.0023	2.019 ± 0.019
CGUCGC	2.06 ± 0.037	2 ± 0.092
CGUCGG	2.01 ± 0.026	2.08 ± 0.049
UGGUCG	1.844 ± 0.015	1.99 ± 0.021
UGGUCA	1.9757 ± 0.0013	2.04 ± 0.062
UGGUCC	2.039 ± 0.0085	2.035 ± 0.016
UGGUCU	1.994 ± 0.015	2.0325 ± 0.0019
AGGGCC	2.07 ± 0.023	2.06 ± 0.06
AGGGCG	1.962 ± 0.008	2.02 ± 0.027
AGGGCU	2.022 ± 0.0078	2.05 ± 0.024
AGGGCA	2.033 ± 0.02	2.03 ± 0.042
CGUAGC	2.03 ± 0.023	2.03 ± 0.022

Variant	normalized RNA/DNA level without ligand (log10) ((6R,S)-folinic acid [1])	normalized RNA/DNA level with ligand (log10) ((6R,S)-folinic acid [2])
CGUAGA	1.9919 ± 0.00011	1.99 ± 0.043
CGUAGU	2.011 ± 0.0076	2 ± 0.034
CGUAGG	1.829 ± 0.015	1.979 ± 0.013
AGUAUU	2 ± 0.011	2.032 ± 0.018
AGUAUC	2.059 ± 0.0016	2.03 ± 0.0073
AGUAUA	1.9846 ± 0.0011	2.02 ± 0.0084
CGGGAG	1.932 ± 0.0051	2 ± 0.023
CGGUCU	2.1 ± 0.035	2.05 ± 0.049
CGGUCC	2.066 ± 0.013	2.03 ± 0.033
CGGUCG	2.042 ± 0.0075	2.04 ± 0.021
CGGUCA	2.005 ± 0.014	1.98 ± 0.064
UGUGAU	1.903 ± 0.016	2 ± 0.027
UGUGAC	1.949 ± 0.007	1.99 ± 0.016
UGUCGC	1.966 ± 0.0063	2.024 ± 0.0019
UGUCGA	1.904 ± 0.0056	1.994 ± 0.013
CGUAUC	2.09 ± 0.0065	2.07 ± 0.023
CGUAUG	2.016 ± 0.012	2.01 ± 0.016
GGUAGG	1.933 ± 0.013	1.99 ± 0.042

From the supplement of paper PMC6757056
